Results published in PMC4750872.

Target: gankyrin (UniProt O75832)
Test: ITC

Chain of UniProt O75832 (O75832 whole entry): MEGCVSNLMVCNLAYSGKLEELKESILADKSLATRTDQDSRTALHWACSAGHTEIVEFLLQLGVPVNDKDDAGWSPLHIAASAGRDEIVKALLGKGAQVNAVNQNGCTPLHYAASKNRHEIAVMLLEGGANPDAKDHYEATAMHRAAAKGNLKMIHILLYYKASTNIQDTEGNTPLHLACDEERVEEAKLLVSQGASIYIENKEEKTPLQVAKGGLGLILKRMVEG

dH: -29 kcal/mol
Substance: FtsH-S6 ATPase
